Columns and labels:
Test in all cases: holdup assay
Set-up in all cases: key: below the threshold = too weak to quantify, mostly under pKd 3.1 to 4
Details in all cases: plain residues with an end cap or a label only (N-terminal biotin on a linker: ahx)
[1] = biological target: T1, NHERF3_4, Q5T2W1
T1 sequence (Q5T2W1 373-468, limits assumed, looked up): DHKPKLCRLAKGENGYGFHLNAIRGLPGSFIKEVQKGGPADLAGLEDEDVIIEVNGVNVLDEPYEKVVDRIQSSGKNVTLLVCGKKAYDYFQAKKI

[2] = biological target: PARD3_3, Q8TEW0
[3] = biological target: T2, GRIP1_3, Q9Y3R0
T2 sequence (Q9Y3R0 247-346, limits assumed, looked up): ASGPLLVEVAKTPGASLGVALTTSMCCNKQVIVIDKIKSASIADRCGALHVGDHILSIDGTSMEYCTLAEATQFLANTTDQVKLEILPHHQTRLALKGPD

[4] = biological target: GRIP2_4, Q9C0E4
Chain of GRIP2_4, Q9C0E4 (Q9C0E4 446-548): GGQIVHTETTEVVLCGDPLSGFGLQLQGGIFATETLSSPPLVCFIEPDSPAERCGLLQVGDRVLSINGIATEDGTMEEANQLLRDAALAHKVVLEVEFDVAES

[5] = biological target: T3, DFNB31_1, Q9P202
T3 sequence (Q9P202 135-233, limits assumed, looked up): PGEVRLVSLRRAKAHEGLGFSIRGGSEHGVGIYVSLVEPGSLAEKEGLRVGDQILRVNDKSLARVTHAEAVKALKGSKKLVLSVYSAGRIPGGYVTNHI

[6] = biological target: T4, PCLO, Q9Y6V0
T4 sequence (Q9Y6V0 4491-4600, limits assumed, looked up): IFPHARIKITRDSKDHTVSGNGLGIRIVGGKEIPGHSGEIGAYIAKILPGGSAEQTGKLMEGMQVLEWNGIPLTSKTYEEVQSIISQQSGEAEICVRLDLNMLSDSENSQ

[7] = biological target: DLG1_2, Q12959
Chain of DLG1_2, Q12959 (Q12959 314-412): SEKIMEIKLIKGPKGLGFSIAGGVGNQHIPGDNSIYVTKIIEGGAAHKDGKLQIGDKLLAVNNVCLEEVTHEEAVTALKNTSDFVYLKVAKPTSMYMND

[8] = biological target: LAP2, Q96RT1
Chain of LAP2, Q96RT1 (Q96RT1 other isoform, or with tags, fused parts or gaps): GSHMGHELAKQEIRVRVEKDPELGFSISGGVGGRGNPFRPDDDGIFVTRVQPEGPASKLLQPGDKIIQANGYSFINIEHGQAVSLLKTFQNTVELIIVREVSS

[9] = biological target: MAGI1_2, Q96QZ7
Chain of MAGI1_2, Q96QZ7 (Q96QZ7 456-580): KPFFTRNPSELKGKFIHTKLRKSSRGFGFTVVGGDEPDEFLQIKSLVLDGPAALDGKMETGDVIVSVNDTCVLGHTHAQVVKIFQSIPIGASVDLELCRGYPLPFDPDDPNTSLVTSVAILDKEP

[10] = biological target: T5, MPP7, Q5T2T1
T5 sequence (Q5T2T1 134-230, limits assumed, looked up): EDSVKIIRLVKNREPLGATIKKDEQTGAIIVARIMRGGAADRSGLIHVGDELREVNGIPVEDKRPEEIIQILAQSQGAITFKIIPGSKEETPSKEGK

[11] = biological target: T6, RHPN1, Q8TCX5
T6 sequence (Q8TCX5 508-602, limits assumed, looked up): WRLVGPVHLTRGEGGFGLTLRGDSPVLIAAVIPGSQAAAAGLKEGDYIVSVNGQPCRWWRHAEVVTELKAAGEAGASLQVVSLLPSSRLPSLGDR

[12] = biological target: ARHGEF12, Q9NZN5-2
Chain of ARHGEF12, Q9NZN5-2 (Q9NZN5 other isoform, or with tags, fused parts or gaps): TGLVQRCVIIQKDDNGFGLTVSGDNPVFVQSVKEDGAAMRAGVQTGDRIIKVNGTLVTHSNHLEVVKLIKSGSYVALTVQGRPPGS

[13] = biological target: Inadl_5, Q8NI35
Chain of Inadl_5, Q8NI35 (Q8NI35 673-780): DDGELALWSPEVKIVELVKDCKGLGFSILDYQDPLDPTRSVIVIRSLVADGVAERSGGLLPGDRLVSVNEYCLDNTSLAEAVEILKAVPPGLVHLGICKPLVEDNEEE

[14] = biological target: Inadl_2, Q8NI35
Chain of Inadl_2, Q8NI35 (Q8NI35 238-335): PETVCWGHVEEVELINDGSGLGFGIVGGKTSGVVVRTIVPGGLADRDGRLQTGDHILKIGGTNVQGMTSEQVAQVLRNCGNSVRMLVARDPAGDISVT

[15] = biological target: T7, LRRC7, Q96NW7
T7 sequence (Q96NW7 1440-1537, limits assumed, looked up): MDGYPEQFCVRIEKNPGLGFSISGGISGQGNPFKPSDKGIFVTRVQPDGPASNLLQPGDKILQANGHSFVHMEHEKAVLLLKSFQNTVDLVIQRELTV

[16] = biological target: T8, HTRA4, P83105
T8 sequence (P83105 378-476, limits assumed, looked up): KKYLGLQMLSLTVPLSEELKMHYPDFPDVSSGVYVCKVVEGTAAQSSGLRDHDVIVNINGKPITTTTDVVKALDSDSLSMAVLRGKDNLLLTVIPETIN

[17] = biological target: T9, PDZRN3_1, Q9UPQ7
T9 sequence (Q9UPQ7 244-349, limits assumed, looked up): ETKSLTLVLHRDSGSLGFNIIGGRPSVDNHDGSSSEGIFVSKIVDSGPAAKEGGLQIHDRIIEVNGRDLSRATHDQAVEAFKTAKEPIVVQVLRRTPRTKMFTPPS

[18] = biological target: PICK1, Q9NRD5
Chain of PICK1, Q9NRD5 (Q9NRD5 17-115): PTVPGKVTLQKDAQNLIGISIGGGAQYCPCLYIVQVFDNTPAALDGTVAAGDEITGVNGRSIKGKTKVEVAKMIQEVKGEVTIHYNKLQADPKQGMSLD

[19] = biological target: MAST2, Q6P0Q8
Chain of MAST2, Q6P0Q8 (Q6P0Q8 1099-1202): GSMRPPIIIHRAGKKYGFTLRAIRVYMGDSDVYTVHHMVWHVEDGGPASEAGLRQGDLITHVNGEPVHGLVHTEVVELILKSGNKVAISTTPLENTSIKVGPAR

[20] = biological target: IL16_1, Q14005
Chain of IL16_1, Q14005 (Q14005 210-306): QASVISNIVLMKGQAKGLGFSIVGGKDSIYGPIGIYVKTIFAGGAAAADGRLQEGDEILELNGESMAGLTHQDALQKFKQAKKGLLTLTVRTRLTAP

[21] = biological target: T10, RADIL, Q96JH8
T10 sequence (Q96JH8 971-1071, limits assumed, looked up): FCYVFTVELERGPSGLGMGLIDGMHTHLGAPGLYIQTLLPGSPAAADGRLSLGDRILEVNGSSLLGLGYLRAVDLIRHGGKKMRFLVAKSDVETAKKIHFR

[22] = biological target: T11, NHERF3_1, Q5T2W1
T11 sequence (Q5T2W1 4-100, limits assumed, looked up): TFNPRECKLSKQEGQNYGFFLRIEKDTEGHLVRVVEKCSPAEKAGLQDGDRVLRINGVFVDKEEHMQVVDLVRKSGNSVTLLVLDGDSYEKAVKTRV

[23] = biological target: DLG4_1, P78352
Chain of DLG4_1, P78352 (P78352 62-152): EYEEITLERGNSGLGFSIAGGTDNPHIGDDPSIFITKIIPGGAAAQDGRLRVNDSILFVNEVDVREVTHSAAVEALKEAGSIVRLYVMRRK

[24] = biological target: T12, LIN7A, O14910
T12 sequence (O14910 103-200, limits assumed, looked up): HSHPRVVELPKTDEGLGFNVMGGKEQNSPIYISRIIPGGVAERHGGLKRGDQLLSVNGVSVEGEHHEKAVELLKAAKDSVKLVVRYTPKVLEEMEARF

Chain of PARD3_3, Q8TEW0 (Q8TEW0 582-685): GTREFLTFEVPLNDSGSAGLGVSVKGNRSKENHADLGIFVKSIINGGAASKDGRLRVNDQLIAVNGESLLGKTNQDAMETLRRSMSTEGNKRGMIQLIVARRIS

pKd [1]: 3.95
pKd [2]: below the threshold
pKd [3]: below the threshold
pKd [4]: below the threshold
pKd [5]: below the threshold
pKd [6]: below the threshold
pKd [7]: below the threshold
pKd [8]: below the threshold
pKd [9]: below the threshold
pKd [10]: below the threshold
pKd [11]: 4.27
pKd [12]: 4.26
pKd [13]: below the threshold
pKd [14]: below the threshold
pKd [15]: below the threshold
pKd [16]: below the threshold
pKd [17]: 3.49
pKd [18]: below the threshold
pKd [19]: 4.25
pKd [20]: below the threshold
pKd [21]: below the threshold
pKd [22]: 4.2
pKd [23]: below the threshold
pKd [24]: below the threshold
B1: SHROOM3, Q8TF72 (peptide)
chain: GIFPTLTSPL

Reference: article PMC9482650, “Quantitative fragmentomics allow affinity mapping of interactomes” (Nature Communications, 2022)
